Laboratory results published in PMC3025356, “Mechanism of the Ca^2+-Dependent Interaction between S100A4 and Tail Fragments of Nonmuscle Myosin Heavy Chain IIA” (Journal of Molecular Biology, 2011).
Several values for one entry are separate records, joined by “and”; a condition that tells them apart may be missing. Identical values can stand only once.

What was measured:
[1] = Turbidity of M200 filaments; type: physicochemical
Method: Absorption spectra were recorded using a Cary 50 spectrophotometer (Varian Ltd., Walton on Thames, UK). Protein concentrations were calculated from their absorbance at 280 nm, using molar coefficients of 2980 M^− 1 cm^− 1 (M200 and S100A4) and 1490 M^− 1 cm^− 1 (M111), based on their tyrosine content (two residues per chain and one residue per chain, respectively). Myosin fragments were measured in 0.5 M NaCl buffer, and care was taken to correct for the small contribution from turbidity. Protein concentrations are stated in terms of their monomeric polypeptide chain concentration. Under the conditions used for kinetic analysis, S100A4 is predominantly a dimer,[21,25] and M200 and M111 form stable coiled coils; therefore, the molar protein concentrations are half those given in all three cases. Fluorescence emission spectra were also checked, and those preparations containing a detectable shoulder at 340 nm due to contaminating tryptophan-containing proteins were subjected to further purification. F-M16^N concentrations were based on fluorescein absorbance (ɛ490 = 78,000 M^− 1 cm^− 1). […] Quin-2 concentrations were calculated from ɛ354 = 5000 M^− 1 cm^− 1 in the absence of Ca^2+.[39] Turbidity assays used to monitor M200 filament formation and solubilisation with manual mixing were carried out using a 10-mm pathlength and a 0.1-ml microcuvette (105.250-QS; Hellma, Southend on Sea, UK) at a wavelength of 300 nm. For determination of the free Ca^2+ concentration, Fura-2 fluorescence excitation spectra were measured in the same cuvette using the 2-mm path for excitation to minimise inner filter effects. […]
y = m2*(1-((m0^m4)/(m0^ m4+m...
Fig. S5. (a) Turbidity of the M200 fragment (5
M) as a function of [NaCl]. (b) Determination of the critical concentration of M200 in 100 mM NaCl, 10 mM Hepes, 0.1 mM Ca2+ at pH 7.5 and 20 °C. Aliquots of 1 or […]
l of M200 were added to 1 ml buffer and the turbidity reading determined over a 30 s period. A linear fit to the data obtained above 0.3
M indicated a critical concentration of 0.1 […]

S100A4 [2] = target: T1, S100A4 (Homo sapiens, UniProt P26447); assay: Summary of rate and equilibrium constants defined according to Scheme 1; type: binding
T1 construct: We used full-length S100A4 for this analysis; made in house; host or cells: Escherichia coli BL21(DE3)
T1 sequence (P26447 whole entry): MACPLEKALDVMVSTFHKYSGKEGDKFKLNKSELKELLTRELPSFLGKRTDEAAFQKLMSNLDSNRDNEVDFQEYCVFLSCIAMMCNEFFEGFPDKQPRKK
From the text: The interaction of myosin tail fragments (M) with S100A4 depends on [Ca^2+], with little detectable binding in the absence of Ca^2+.[2,7,17] Scheme 1 presents a minimal pathway describing the thermodynamics and kinetics of this interaction, where arrow lengths indicate the approximate position of the equilibria involved.
[formula] Scheme 1 Ca2+ and myosin peptide (M) binding to S100A4.
The binding of Ca^2+ and a target peptide to S100A4, as shown in Scheme 1, is thermodynamically coupled so that K1K2 = K0K3. For simplicity, we assume a 1:1 stoichiometry and independent binding sites, which are unlikely to be true at least for the longer fragments. However, the trends in binding remain valid for more complex cases. Binding of target peptides to S100A4 in the absence of Ca^2+ is weak (K0 > 100 μM), while binding of target peptides to S100A4 in the presence of Ca^2+ (K2) is around a micromolar or less for longer fragments. Knowing that Ca^2+ binding to S100A4 has K1 = 2–5 μM (from the ITC data above and the literature[14,17,18]) requires that Ca^2+ binding to the M–S100A4 complex be very tight (K3 < 0.15 μM and even lower for M200). The latter cannot be easily determined directly as it requires protein concentrations greater than K0 (i.e., >>100 μM) so that the proteins remain bound together throughout the titration with Ca^2+. However, K3 is readily determined by calculation because values or limits for K0, K1, and K2 are available (Table 2). This aspect is addressed further below for M200, which has the complication of forming filaments at the ionic strength used.

S100A4 [3] = target: T1, S100A4; assay: Competition of M32/M16^N with M200 for S100A4 (turbidity); type: biochemical; conditions: turbidity competition
Method: Fig. 9 Dissociation of M200 filaments by S100A4. (a) Initially, M200 was added (i) from a concentrated stock in 0.5 M NaCl to give a final concentration of 5 μM M200 (with respect to the polypeptide chain) in 100 mM NaCl, 10 mM Hepes, and 0.1 mM Ca^2+ at pH 7.5 and 20 °C. A biphasic rise in turbidity was recorded for 200 s (continuous line). Then 10 μM S100A4 (with respect to monomer concentration) was added (ii), followed by 0.2 mM EGTA (iii) and 1 mM Ca^2+ (iv). […] (b) M200 was diluted (i) into 100 mM NaCl to form filaments as in (a), then 5 μM S100A4 was added (ii), causing a 54% drop in turbidity. A further 5 μM S100A4 (iii) caused turbidity to fall to almost zero. (c) Stopped-flow records monitoring the dissociation of 5 μM M200 filaments on jumping [NaCl] from 100 mM to 120 mM NaCl. Other components of the buffer were 20 mM Hepes, 1 mM Mg^2+, and 100 μM Ca^2+ at pH 7.5 and 20 °C. […] In the presence of 20 μM S100A4 (lower trace), the turbidity decreased by 87% with a rate constant of 0.2 s^− 1.
Further information on Scheme 2 was obtained from competition assays. […] An independent estimate of K5 based on the Ca^2+ dependence of the turbidity assay yielded a value of 0.003 μM (see Supplementary Data).
The decrease in fluorescence, […]
that F-M16N binding was slightly faster. […]
A second estimate was calculated from the apparent Ca2+ binding constant observed in the turbidity assay […]

B1: M200: His-tagged human NM-MHC IIA residues Q1761-E1960, V1913I substitution (protein, UniProt P35579 1761-1960, looked up, variant V1913I)
chain: QINTDLNLERSHAQKNENARQQLERQNKELKVKLQEMEGTVKSKYKASITALEAKIAQLEEQLDNETKERQAACKQVRRTEKKLKDVLLQVDDERRNAEQYKDQADKASTRLKQLKRQLEEAEEEAQRANASRRKLQRELEDATETADAMNREISSLKNKLRRGDLPFVVPRRMARKGAGDGSDEEVDGKADGAEAKPAE
modifications: His tag
notes: His-tagged human NM-MHC IIA residues Q1761-E1960, V1913I substitution
NaCl midpoint of turbidity transition ([1]; 5 μM M200): about 120 mM NaCl | intercept (critical concentration) from 2.5-5 μM data only ([1]; 100 mM NaCl): 0.49 µM | critical concentration ([1]; 100 mM NaCl, 10 mM Hepes, 0.1 mM Ca^2+, pH 7.5, 20 °C): ~0.1 ± 0.04 µM and < 0.2 µM | critical concentration (supplement) ([1]; 100 mM NaCl, 10 mM Hepes, 0.1 mM Ca^2+, pH 7.5, 20 °C, fit above 0.3 μM): 0.1 µM | k3 (S100A4 [2]; Ca^2+ association to peptide–S100A4): > 2000 μM^− 1 s^− 1 | Kd (S100A4 [2]; Ca^2+ binding to peptide–S100A4, limit from K3 = K1K2/K0, read-out: K3): < 150 pM | k− 3 (S100A4 [2]; Ca^2+ dissociation from peptide–S100A4–Ca^2+): 0.3 s^− 1 | k− 2 (S100A4 [2]; peptide dissociation from S100A4–Ca^2+): < 0.3 s^− 1 | binding relative to M32 (S100A4 [3]): 3 orders of magnitude tighter than M32
